Measurements: the supplement of paper PMC11780869

Tested on: Bacillus subtilis
Assay: cleaved RNA product abundance (RNA/gDNA barcode ratio) relative to median wild-type variant (ratio to wild type); higher = more accumulation of the downstream cleavage product
How it was run: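 In LB at 37°C, B. subtilis cultures went from OD600 0.0003 to 0.3. Their chromosomes held barcoded reporter mRNAs, truncated aprE or tetM, with RNase Y cleavage-site windows mutagenized via oligos at a 9% error rate. Cleaved RNA, chosen by gel, was reverse transcribed and barcode-sequenced alongside genomic DNA barcodes with UMI collapsing, giving a per-construct RNA:gDNA ratio scaled to the median construct with the unmutated site. This scaled ratio is termed cleaved product abundance.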

[1] = experiment (reporter, strain, medium): exp 4a: truncated aprE reporter, strain BJT201 with 2% xylose (RNase J1 expressed), cleavage site: cggR-gapA (positions -7 to +36 mutated)
[2] = experiment (reporter, strain, medium): exp 2b: truncated aprE reporter, strain BJT200, cleavage site: cggR-gapA (positions -7 to +36 mutated)
[3] = experiment (reporter, strain, medium): exp 8a: truncated aprE reporter, strain BJT201 with 2% xylose (RNase J1 expressed), cleavage site: glnRA (positions -5 to +31 mutated)
[4] = experiment (reporter, strain, medium): exp 6: tetM reporter, strain 168, cleavage site: cggR-gapA (positions -7 to +36 mutated)

ACAGACGAAGGAGCCGCAAATAAGTTATTAAGGGATGAATAATCCCTCAATGTAAATATCTCTCACTTATTTAAA
cleaved RNA product abundance [1]: 0.178

ACAGACGAAGGAGCCGCAAAGAAGTTATCAAGGGATGAATAATCGCTCAATATAAATATCTCTCACTTATTTAAA
cleaved RNA product abundance [1]: 0.0908

ACAGACGAAGGAGCCGCAAAAAAGTTATTAAGGGATGAATTATCCCTCAATATAAATATCTCTCACTTATTTAAA
cleaved RNA product abundance [1]: 0.808

ACAGACGAAGGAGCCGCAAAGAAATTGTTAAGGGATGAATAATCCCTCAATATAAATATCTCTCACTTATTTAAA
cleaved RNA product abundance [2]: 0.377

ACAGACGAAGGAGCCGCAAAAAAGTGATTAAGGGATGAATAATCCCTCAATATAAATATCTCTCACTTATTTAAA
cleaved RNA product abundance [2]: 0.276 | cleaved RNA product abundance [1]: 0.583

ACAGACGAAGGAGCCGCAAAGAAATTATTAAGGGATGAATAATCCCTCCATATAAATATCTCTCACTTATTTAAA
cleaved RNA product abundance [1]: 0.338

ACAGACGAAGGAGCCGCAAAGAAGATAATAAGGGATGAATAATCCCTCAATATAAATATCTCTCACTTATTTAAA
cleaved RNA product abundance [1]: 0.227

CGACATGTCCCGCTTCTTTCATTAATCCGTTAACAACTGTTTTGCTATATACATTTACATTTTAAGAGGAGGAAT
cleaved RNA product abundance [3]: 0.202

CGACATGTCCCGCTTCTTTCATTAATCCATTAGCAACTGTTTTGCTATATACATTTATCTTTTAAGAGGAGGAAT
cleaved RNA product abundance [3]: 0.777

ACAGACGAAGGAGCCGCAAAGAAGTTATTAAGGGATGAATAATAGCTCAATATAAATATCTCTCACTTATTTAAA
cleaved RNA product abundance [1]: 0.13

CGACATGTCCCGCTTCTTTCATTAATCCGTTAGCCACTGTTTTGCTATATACAGTTACCTTTTAAGAGGAGGAAT
cleaved RNA product abundance [3]: 0.244

ACAGACGAAGGAGCCGCAAAGAAGGTATTAAGGGATAAATAATCCCTCAATATAAATATCTCTCACTTATTTAAA
cleaved RNA product abundance [1]: 1.29

ACAGACGAAGGAGCCGCAAAGAAGATATTAAGGGATGAATAAGCCCTCAATATAAATATCTCTCACTTATTTAAA
cleaved RNA product abundance [1]: 0.432

ACAGACGAAGGAGCCGCAAAGAAGTTATTAAGGAATGAATAATCCCTCAATATATATATCTCTCACTTATTTAAA
cleaved RNA product abundance [2]: 0.0862 | cleaved RNA product abundance [1]: 0.149

ACAGACGAAGGAGCCGCAAAGAAGTTATTAAAGGATGAATAATCACTCAATATAAATATCTCTCACTTATTTAAA
cleaved RNA product abundance [2]: 0.0796 | cleaved RNA product abundance [1]: 0.14

ACAGACGAAGGAGCCGCAAAGAAGTTAATAAGGGATCAATAATCCCTCAATATAAATATCTCTCACTTATTTAAA
cleaved RNA product abundance [2]: 0.282 | cleaved RNA product abundance [1]: 0.316

ACAGACGAAGGAGCCGCAAAGAAGTTATTAAGCGATGCATAATCCCTCAATATAAATATCTCTCACTTATTTAAA
cleaved RNA product abundance [1]: 0.125

CGACATGTCCCGCTTCTTTCATTAATCCGTTAGCAACTATTTTGCTATATACGTTTACCTTTTAAGAGGAGGAAT
cleaved RNA product abundance [3]: 0.197

ACAGACGAAGGAGCCGCAAAGAAGTTATTAAGGCATGAATAATCCGTCAATATAAATATCTCTCACTTATTTAAA
cleaved RNA product abundance [1]: 0.0753

ACAGACGAAGGAGCCGCAAAGATGTTATTAAGGGATGAATAATCCATCAATATAAATATCTCTCACTTATTTAAA
cleaved RNA product abundance [2]: 0.171 | cleaved RNA product abundance [1]: 0.311

CGACATGTCCCGCTTCTTTCATTAATCCGTTTGCAACTGTTTTGCTATATACATTTACGTTTTAAGAGGAGGAAT
cleaved RNA product abundance [3]: 0.661

CGACATGTCCCGCTTCTTTCATTAATCCGTTAGCAACTGTTTTGCAATATACATTTAGCTTTTAAGAGGAGGAAT
cleaved RNA product abundance [3]: 0.72

ACAGACGAAGGAGCCGCAAAGAAGTTATAAAGGGATGAATATTCCCTCAATATAAATATCTCTCACTTATTTAAA
cleaved RNA product abundance [1]: 0.281

ACAGACGAAGGAGCCGCAAAGAAGTTATTAACGGATGAATAATCCCTAAATATAAATATCTCTCACTTATTTAAA
cleaved RNA product abundance [1]: 0.225 | cleaved RNA product abundance [4]: 0.194

ACAGACGAAGGAGCCGCAAAGAACTTATTAAGGGATGAATAATCCCTTAATATAAATATCTCTCACTTATTTAAA
cleaved RNA product abundance [1]: 0.369 | cleaved RNA product abundance [4]: 0.271

CGACATGTCCCGCTTCTTTCATTACTCCGTTAGCAACTGTGTTGCTATATACATTTACCTTTTAAGAGGAGGAAT
cleaved RNA product abundance [3]: 0.327

ACAGACGAAGGAGCCGCAAAGAAGTTATTAAGGGAGGAATAATCCCTCAAGATAAATATCTCTCACTTATTTAAA
cleaved RNA product abundance [1]: 0.152

ACAGACGAAGGAGCCGCACAGAAGTGATTAAGGGATGAATAATCCCTCAATATAAATATCTCTCACTTATTTAAA
cleaved RNA product abundance [2]: 0.259 | cleaved RNA product abundance [1]: 0.311

CGACATGTCCCGCTTCTTTCATTAATCCGTTAGCAACTGTTTAGCTATATACATTTGCCTTTTAAGAGGAGGAAT
cleaved RNA product abundance [3]: 0.326

ACAGACGAAGGAGCCGCAAAGACGTTTTTAAGGGATGAATAATCCCTCAATATAAATATCTCTCACTTATTTAAA
cleaved RNA product abundance [1]: 0.44

CGACATGTCCCGCTTCTTTCATTAAACCGTTAGCAACTGTCTTGCTATATACATTTACCTTTTAAGAGGAGGAAT
cleaved RNA product abundance [3]: 0.759

CGACATGTCCCGCTTCTTTCATTAATCCGTTATCGACTGTTTTGCTATATACATTTACCTTTTAAGAGGAGGAAT
cleaved RNA product abundance [3]: 0.257

ACAGACGAAGGAGCCGCAAAGAAGTTATTAAGGGATGAATAATACCTCCATATAAATATCTCTCACTTATTTAAA
cleaved RNA product abundance [2]: 0.069 | cleaved RNA product abundance [1]: 0.092

CGACATGTCCCGCTTCTTTCATTAATCCGTAAGCTACTGTTTTGCTATATACATTTACCTTTTAAGAGGAGGAAT
cleaved RNA product abundance [3]: 0.123

ACAGACGAAGGAGCCGCAACGAAGTAATTAAGGGATGAATAATCCCTCAATATAAATATCTCTCACTTATTTAAA
cleaved RNA product abundance [1]: 0.347

CGACATGTCCCGCTTCTTTCATTAATCCGTTAGGAACAGTTTTGCTATATACATTTACCTTTTAAGAGGAGGAAT
cleaved RNA product abundance [3]: 0.434

ACAGACGAAGGAGCCGCAAAGAAGTTATTAAGGGATGACTAATCCATCAATATAAATATCTCTCACTTATTTAAA
cleaved RNA product abundance [2]: 0.112 | cleaved RNA product abundance [1]: 0.154

CGACATGTCCCGCTTCTTTCATTAATCCGTTAGCAACTGTTTTGCTATATACAATTTACCTTTTAAGAGGAGGAA
cleaved RNA product abundance [3]: 1.39

ACAGACGAAGGAGCCGCAAAGAAGTTATTAAGGGATGCATAATCCCTCAATATAAACATCTCTCACTTATTTAAA
cleaved RNA product abundance [1]: 0.545

ACAGACGAAGGAGCCGCAAAGAAGTTATTAAGTGATGAATAATCCCTCAATATAATTATCTCTCACTTATTTAAA
cleaved RNA product abundance [1]: 0.0685

ACAGACGAAGGAGCCGCAAAGAAGTTATTAAGGGATGAATAATACCTCTATATAAATATCTCTCACTTATTTAAA
cleaved RNA product abundance [1]: 0.156

ACAGACGAAGGAGCCGCAAAGAAGTTGTTAAGCGATGAATAATCCCTCAATATAAATATCTCTCACTTATTTAAA
cleaved RNA product abundance [1]: 0.0544

ACAGACGAAGGAGCCGCAAAGAAGTTATTAACGGATTAATAATCCCTCAATATAAATATCTCTCACTTATTTAAA
cleaved RNA product abundance [2]: 0.121 | cleaved RNA product abundance [1]: 0.141

ACAGACGAAGGAGCCGCAAAGAATTTATTCAGGGATGAATAATCCCTCAATATAAATATCTCTCACTTATTTAAA
cleaved RNA product abundance [2]: 0.624 | cleaved RNA product abundance [1]: 0.549

ACAGACGAAGGAGCCGCAAAGAAGTTATTAAGGGATGAATAGTCCCTGAATATAAATATCTCTCACTTATTTAAA
cleaved RNA product abundance [1]: 0.334

ACAGACGAAGGAGCCGCAAACAAGTTATTAAGGGATGAATAATCCCTCAATATACATATCTCTCACTTATTTAAA
cleaved RNA product abundance [2]: 0.644 | cleaved RNA product abundance [1]: 0.536

CGACATGTCCCGCTTCTTTCATTAATCCGTTATCAACTGATTTGCTATATACATTTACCTTTTAAGAGGAGGAAT
cleaved RNA product abundance [3]: 0.286

ACAGACGAAGGAGCCGCAAAGAAGTTATTAAGGGATGAATAATCCCTCAGGATAAATATCTCTCACTTATTTAAA
cleaved RNA product abundance [2]: 0.131

ACAGACGAAGGAGCCGCATAGAAGTTATTAAGGGATCAATAATCCCTCAATATAAATATCTCTCACTTATTTAAA
cleaved RNA product abundance [1]: 1.04

ACAGACGAAGGAGCCGCAAAGAAGTGATTAAGAGATGAATAATCCCTCAATATAAATATCTCTCACTTATTTAAA
cleaved RNA product abundance [2]: 0.0989 | cleaved RNA product abundance [1]: 0.133

ACAGACGAAGGAGCCGCAAAGAAGTTATTAAGTGATAAATAATCCCTCAATATAAATATCTCTCACTTATTTAAA
cleaved RNA product abundance [1]: 0.103 | cleaved RNA product abundance [4]: 0.113

CGACATGTCCCGCTTCTTTCATTAATCCGTTAGCAACTGTCTTGATATATACATTTACCTTTTAAGAGGAGGAAT
cleaved RNA product abundance [3]: 0.547

CGACATGTCCCGCTTCTTTCATTAATGCGTTAGCAACTGTTTTGGTATATACATTTACCTTTTAAGAGGAGGAAT
cleaved RNA product abundance [3]: 0.244

ACAGACGAAGGAGCCGCAAAGAAGTTATTAAGGGATGAATAATACCTCAATATTAATATCTCTCACTTATTTAAA
cleaved RNA product abundance [2]: 0.0803 | cleaved RNA product abundance [1]: 0.0425 | cleaved RNA product abundance [4]: 0.0694

ACAGACGAAGGAGCCGCAAGGAAGTTATTAAGGGATGAATAATCCCTCAATATACATATCTCTCACTTATTTAAA
cleaved RNA product abundance [1]: 0.774

ACAGACGAAGGAGCCGCAAAGAAGTTATTAAGGGATGAAAACTCCCTCAATATAAATATCTCTCACTTATTTAAA
cleaved RNA product abundance [2]: 0.816

ACAGACGAAGGAGCCGCAAAGAAGTTAATAATGGATGAATAATCCCTCAATATAAATATCTCTCACTTATTTAAA
cleaved RNA product abundance [2]: 0.104 | cleaved RNA product abundance [1]: 0.137

ACAGACGAAGGAGCCGCAATGAAGTTATTAAGGGATGAATAATCGCTCAATATAAATATCTCTCACTTATTTAAA
cleaved RNA product abundance [1]: 0.0881

CGACATGTCCCGCTTCTTTCATTAATCCCTTAACAACTGTATTGCTATATACATTTACCTTTTAAGAGGAGGAAT
cleaved RNA product abundance [3]: 0.142

ACAGACGAAGGAGCCGCAAAGACGTTATTAAGGGATGAATAATTCCTCAATATAAATATCTCTCACTTATTTAAA
cleaved RNA product abundance [1]: 0.944
